Experimental data as given in US20250236644A1 (University of Washington, published 2025).

Experiments:
Assay in all cases: FP titration, 1 nM peptide, hinge varied
[1] = molecular target: T1, TAMRA-labeled effector peptide cs201B (5(6)-TAMRA label coupled on resin after synthesis)
T1 construct: also called TAMRA-cs201B
T1 peptide: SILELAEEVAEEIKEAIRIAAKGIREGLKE
Description: (§1) FIG. 10. Redesign of hinges to bind other target peptides. An experimentally tested hinge (top, cs201) is redesigned using a one-sided two-state design approach to bind to different target peptides. Hinges csw13 and csw20 are designed to bind to peptides cs221B and cs074B, respectively, while having a backbone conformation that is similar to the parent cs201 that binds cs201B. Left: design models, right: FP titrations using 1 nM peptide (cs201B, cs221B, cs074B, js007B) and varying concentrations of hinge (from top to bottom: cs201, csw13, csw20). csw13 is an example of a successful orthogonal redesign that specifically binds the new target peptide cs221B while not binding the parent target peptide cs201B or the off-target peptides cs074B or js007B. csw20 is a less orthogonal example that binds the new target peptide cs074B most strongly but still binds to the parent-target peptide cs201B and to the off-target peptide cs221B albeit weaker than the new target.
(§2) All FP measurements were performed at 25° C. in 96-well plates (Corning 3686) using a Synergy Neo2™ plate reader and a 530/590 nm filter cube. The buffer for all FP measurements was 20 mM Tris-HCl, 100 mM NaCl, 0.05% v/v TWEEN20 at pH 8. Titrations were carried out in 96-well format, with 4 replicates per plate and 24 data points per titration (23 steps of two-fold serial dilution of hinges in the presence of TAMRA-labeled peptide at a constant concentration between 0.1 nM and 1 nM) with a final sample volume of 80 μl per well. Titration plates were incubated overnight at room temperature before measuring to ensure complete equilibration. The polarization signal S (as calculated by the Neo2™ software) was fitted to the equation

[2] = molecular target: T2, TAMRA-labeled effector peptide js007B (5(6)-TAMRA label coupled on resin after synthesis)
T2 construct: also called TAMRA-js007B
T2 peptide: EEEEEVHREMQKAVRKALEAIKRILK
Description: as §1, §2

[3] = molecular target: T3, TAMRA-labeled effector peptide cs074B (5(6)-TAMRA label coupled on resin after synthesis)
T3 construct: Chemically synthesized; also called TAMRA-cs074B
T3 peptide: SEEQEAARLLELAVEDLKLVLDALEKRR
Description: as §1, §2

[4] = molecular target: T4, TAMRA-labeled effector peptide cs221B (5(6)-TAMRA label coupled on resin after synthesis)
T4 construct: also called TAMRA-cs221B
T4 peptide: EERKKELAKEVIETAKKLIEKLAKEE
Description: as §1, §2

B1: swapped target hinge csw13 (designed binder)
chain: MSGNEEVKKLVEEAKKYLKEAEEYIKKAKKTGNEELLEKALKLLEKALELVKKAIELDPNNKEAIEQAVEIARALNEVAELLIEEAKKTGNEELLEKALEALEAANEALKLAIENNENDKELLAEIAVELAEVGVLLAEVLIEEAKKTGDPELLKLALEVLEAAVEALELALKLDPNNEEAVELAEEAAKLLEEVAKELKEEAKKTGDPELEKLAKEAEELAKRAKELAERQRGSGSHHWGSTHHHHHH
**Q.** Does B1 bind [1]?
**A.** Result: no binding

**Q.** Does B1 bind [2]?
**A.** Result: no binding

**Q.** Does B1 bind [3]?
**A.** Result: no binding

**Q.** Does B1 bind [4]?
**A.** Result: binds
